Test results taken from article PMC3349548, “UBXN7 docks on neddylated cullin complexes using its UIM motif and causes HIF1α accumulation” (BMC Biology, 2012).

Key:
Conditions in all cases: both partners purified
[1] = target: T1, CUL2/RBX1, unmodified (full-length CUL2, GST cleaved off) (human | , UniProt Q13617-1 1-745; P62877 1-108); assay: co-IP; 1.5 μg CUL2/RBX1 (unmodified or neddylated in vitro) pre-incubated with 1.5 μg bacterially expressed Flag-UBXN7 for 30 minutes, then one hour with anti-Flag beads in buffer D
T1 construct: CUL2, human, full-length; RBX1, amplified from EST IMAGE 3138751; also called unmodified CUL2; non-neddylated CUL2; source: Spodoptera frugiperda 21 cells (baculovirus), purified (GSH-Sepharose, GST cleaved with PreScission protease)
T1 sequence (Q13617 whole entry, chain 1 of 2): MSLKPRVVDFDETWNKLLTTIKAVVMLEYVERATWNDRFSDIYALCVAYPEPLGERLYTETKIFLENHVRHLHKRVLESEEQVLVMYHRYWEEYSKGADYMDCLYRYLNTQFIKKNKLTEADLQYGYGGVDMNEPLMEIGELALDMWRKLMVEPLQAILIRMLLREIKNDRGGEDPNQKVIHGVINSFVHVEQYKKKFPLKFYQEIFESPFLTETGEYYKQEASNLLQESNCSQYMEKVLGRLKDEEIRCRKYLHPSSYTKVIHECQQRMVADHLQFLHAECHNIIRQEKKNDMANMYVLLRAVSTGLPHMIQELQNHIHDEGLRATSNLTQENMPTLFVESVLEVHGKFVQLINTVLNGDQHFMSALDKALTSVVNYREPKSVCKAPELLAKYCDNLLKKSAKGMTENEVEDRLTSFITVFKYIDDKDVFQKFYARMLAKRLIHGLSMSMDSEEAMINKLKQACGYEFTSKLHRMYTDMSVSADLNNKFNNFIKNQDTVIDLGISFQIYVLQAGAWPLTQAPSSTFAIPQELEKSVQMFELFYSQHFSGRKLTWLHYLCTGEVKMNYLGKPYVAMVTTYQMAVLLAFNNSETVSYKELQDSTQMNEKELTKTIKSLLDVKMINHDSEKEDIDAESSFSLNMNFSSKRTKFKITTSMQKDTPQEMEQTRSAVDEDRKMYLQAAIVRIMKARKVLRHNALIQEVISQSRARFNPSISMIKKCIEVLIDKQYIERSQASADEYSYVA
T1 sequence (P62877 whole entry, chain 2 of 2): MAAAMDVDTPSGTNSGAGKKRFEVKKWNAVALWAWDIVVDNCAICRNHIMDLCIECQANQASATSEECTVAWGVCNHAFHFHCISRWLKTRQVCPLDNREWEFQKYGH

[2] = target: T2, CUL2/RBX1, neddylated in vitro (partially neddylated full-length CUL2) (human | , UniProt Q13617-1 1-745; P62877 1-108; Q15843 1-76, NEDD8 conjugated in vitro on only a fraction of CUL2; Lys689 is the site of NEDD8-conjugation in human CUL2); assay: as above
T2 construct: CUL2, human, full-length; RBX1, amplified from EST IMAGE 3138751; NEDD8 (BostonBiochem) conjugated to CUL2 in vitro; RBX1 substoichiometric; also called neddylated CUL2; CUL2 that was in vitro neddylated; copies: + +
T2 sequence (Q13617 whole entry, chain 1 of 3): as the sequence (Q13617 whole entry, chain 1 of 2) above
T2 sequence (P62877 whole entry, chain 2 of 3): as the sequence (P62877 whole entry, chain 2 of 2) above
T2 sequence (Q15843 1-76, chain 3 of 3): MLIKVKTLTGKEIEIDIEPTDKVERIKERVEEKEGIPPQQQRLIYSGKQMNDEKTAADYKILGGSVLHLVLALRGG

ubiquitin-agarose = target: T3, ubiquitin-agarose (UniProt P0CG47 1-76); assay: pull-down; 25 μg recombinant UBXN7 variant incubated for one hour with 10 μl NEDD8- or ubiquitin-agarose in buffer D (50 mM HEPES/KOH pH 7.5, 60 mM KOAc, 5 mM MgCl2, 5% glycerol, 0.1% Triton X-100)
T3 construct: ubiquitin coupled to agarose beads; source: bought: BostonBiochem (ubiquitin-agarose)

[3] = target: T4, Flag-CUL1(324-776)/GST-HA-RBX1 complex, non-neddylated (mock neddylation) (UniProt Q13616 324-776; P62877 1-108); assay: pull-down; Flag-CUL1(324-776)/GST-HA-RBX1 (about 1 μg) immobilized on GSH-sepharose, neddylated or mock-treated, incubated for one hour with 3 μg Flag-UBXN7 variant in buffer D; naked beads as control
T4 construct: RBX1; also called non-neddylated CUL1 fragment; CUL1/RBX1 complex; source: E. coli BL21, co-expressed, immobilized from lysate on GSH-sepharose
T4 sequence (Q13616 324-776, chain 1 of 2): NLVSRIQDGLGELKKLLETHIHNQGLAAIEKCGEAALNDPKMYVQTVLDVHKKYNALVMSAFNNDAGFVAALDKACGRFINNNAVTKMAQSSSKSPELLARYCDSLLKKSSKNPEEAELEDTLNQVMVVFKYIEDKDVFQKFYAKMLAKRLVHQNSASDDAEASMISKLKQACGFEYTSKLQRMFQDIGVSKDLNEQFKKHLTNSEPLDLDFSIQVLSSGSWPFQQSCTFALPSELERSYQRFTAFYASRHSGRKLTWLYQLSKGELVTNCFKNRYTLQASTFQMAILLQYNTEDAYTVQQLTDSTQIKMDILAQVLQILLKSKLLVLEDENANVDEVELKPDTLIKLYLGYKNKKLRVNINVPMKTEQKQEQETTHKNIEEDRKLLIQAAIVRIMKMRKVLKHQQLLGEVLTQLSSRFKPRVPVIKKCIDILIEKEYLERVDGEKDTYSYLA
T4 sequence (P62877 whole entry, chain 2 of 2, the tested form may be a part): as the sequence (P62877 whole entry, chain 2 of 2) above

[4] = target: T5, Flag-CUL1(324-776)/GST-HA-RBX1 complex, neddylated in vitro (mixture of neddylated and non-neddylated) (UniProt Q13616 324-776; P62877 1-108; Q15843 1-76, NEDD8 conjugated in vitro (mixture of neddylated and non-neddylated); site not stated); assay: as above
T5 construct: RBX1; NEDD8 (BostonBiochem) conjugated to the CUL1 fragment in vitro; also called neddylated CUL1 fragment; source: E. coli BL21, co-expressed, immobilized from lysate on GSH-sepharose, neddylated in vitro on the beads; copies: + +
T5 sequence (Q13616 324-776, chain 1 of 3): as the sequence (Q13616 324-776, chain 1 of 2) above
T5 sequence (P62877 whole entry, chain 2 of 3, the tested form may be a part): as the sequence (P62877 whole entry, chain 2 of 2) above
T5 sequence (Q15843 1-76, chain 3 of 3): as the sequence (Q15843 1-76, chain 3 of 3) above

- binding result [1]: binds
- binding result [2]: binds
- binding result (ubiquitin-agarose): binds
- binding result [3]: binds
- binding result [4]: binds
B1: bacterially expressed Flag-UBXN7 (wild-type, full length) (natural protein, human, UniProt O94888 1-489, looked up)
chain: MAAHGGSAASSALKGLIQQFTTITGASESVGKHMLEACNNNLEMAVTMFLDGGGIAEEPSTSSASVSTVRPHTEEEVRAPIPQKQEILVEPEPLFGAPKRRRPARSIFDGFRDFQTETIRQEQELRNGGAIDKKLTTLADLFRPPIDLMHKGSFETAKECGQMQNKWLMINIQNVQDFACQCLNRDVWSNEAVKNIIREHFIFWQVYHDSEEGQRYIQFYKLGDFPYVSILDPRTGQKLVEWHQLDVSSFLDQVTGFLGEHGQLDGLSSSPPKKCARSESLIDASEDSQLEAAIRASLQETHFDSTQTKQDSRSDEESESELFSGSEEFISVCGSDEEEEVENLAKSRKSPHKDLGHRKEENRRPLTEPPVRTDPGTATNHQGLPAVDSEILEMPPEKADGVVEGIDVNGPKAQLMLRYPDGKREQITLPEQAKLLALVKHVQSKGYPNERFELLTNFPRRKLSHLDYDITLQEAGLCPQETVFVQERN
notes: UBXN7, human, full length, in a modified pGEX6P-1 vector; also called wild-type UBXN7; recombinant UBXN7; source: E. coli BL21 DE3, purified (GSH-sepharose, TEV cleavage, Superdex 75)
